Reference: the supplement of paper PMC9112550, “Optimization of the antimicrobial peptide Bac7 by deep mutational scanning” (BMC Biology, 2022)

System: Escherichia coli TOP10
Test: shrunken log2 fold change of peptide-encoding DNA abundance (4.5 h post-induction vs induction); higher = less antimicrobial activity (less host growth inhibition)
Settings: time post-induction: 4.5 h; library: site-saturation at positions 5, 18, 19, 20
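Note: peptides expressed intracellularly from a pBAD plasmid library in pooled LB shake-flask culture, induced with 0.3% L-arabinose, DNA abundance read by NGS, three biological replicates, DESeq2 with apeglm shrinkage.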

Sequence | shrunken log2 fold change
RRIRARPPRLPRPRPRPQYTPRP | -0.496
RRIRARPPRLPRPRPRPRCVPRP | 0.347
RRIRARPPRLPRPRPRPRENPRP | 1.06
RRIRARPPRLPRPRPRPRFYPRP | -0.0395
RRIRARPPRLPRPRPRPRGAPRP | 0.961
RRIRARPPRLPRPRPRPRGCPRP | 0.822
RRIRARPPRLPRPRPRPRGKPRP | 0.376
RRIRARPPRLPRPRPRPRGSPRP | 0.708
RRIRARPPRLPRPRPRPRHTPRP | 0.419
RRIRARPPRLPRPRPRPRIWPRP | 0.164
RRIRARPPRLPRPRPRPRKVPRP | 0.615
RRIRARPPRLPRPRPRPRKYPRP | 0.0773
RRIRARPPRLPRPRPRPRLHPRP | 0.376
RRIRARPPRLPRPRPRPRMFPRP | 0.345
RRIRARPPRLPRPRPRPRMLPRP | 0.395
RRIRARPPRLPRPRPRPRNWPRP | 0.388
RRIRARPPRLPRPRPRPRPPPRP | 1.26
RRIRARPPRLPRPRPRPRPSPRP | 0.622
RRIRARPPRLPRPRPRPRRDPRP | 0.656
RRIRARPPRLPRPRPRPRSRPRP | 0.757
RRIRARPPRLPRPRPRPRTAPRP | 0.844
RRIRARPPRLPRPRPRPRTKPRP | 0.565
RRIRARPPRLPRPRPRPRVEPRP | 0.187
RRIRARPPRLPRPRPRPRVFPRP | 0.704
RRIRARPPRLPRPRPRPRVRPRP | 0.567

Sequence | shrunken log2 fold change
RRIRARPPRLPRPRPRPRWHPRP | 0.323
RRIRARPPRLPRPRPRPRWMPRP | 0.451
RRIRARPPRLPRPRPRPRWVPRP | 0.267
RRIRARPPRLPRPRPRPRWWPRP | 0.199
RRIRARPPRLPRPRPRPRYLPRP | -0.351
RRIRARPPRLPRPRPRPSAYPRP | 0.0396
RRIRARPPRLPRPRPRPSECPRP | 0.145
RRIRARPPRLPRPRPRPSENPRP | 0.182
RRIRARPPRLPRPRPRPSGRPRP | 0.0751
RRIRARPPRLPRPRPRPSHTPRP | 0.162
RRIRARPPRLPRPRPRPSHWPRP | -0.175
RRIRARPPRLPRPRPRPSIRPRP | -0.0712
RRIRARPPRLPRPRPRPSIYPRP | -0.404
RRIRARPPRLPRPRPRPSKVPRP | -0.0951
RRIRARPPRLPRPRPRPSMDPRP | 1.4
RRIRARPPRLPRPRPRPSMPPRP | -0.176
RRIRARPPRLPRPRPRPSNCPRP | -0.285
RRIRARPPRLPRPRPRPSNKPRP | -0.31
RRIRARPPRLPRPRPRPSNPPRP | -0.0677
RRIRARPPRLPRPRPRPSPSPRP | 0.52
RRIRARPPRLPRPRPRPSQIPRP | 0.0409
RRIRARPPRLPRPRPRPSTDPRP | 1.08
RRIRARPPRLPRPRPRPSTKPRP | 0.076
RRIRARPPRLPRPRPRPSVFPRP | 0.461
RRIRARPPRLPRPRPRPSWFPRP | 0.156

Sequence | shrunken log2 fold change
RRIRARPPRLPRPRPRPSWKPRP | 0.237
RRIRARPPRLPRPRPRPTACPRP | 0.405
RRIRARPPRLPRPRPRPTAFPRP | 0.815
RRIRARPPRLPRPRPRPTATPRP | 1.2
RRIRARPPRLPRPRPRPTDNPRP | 0.152
RRIRARPPRLPRPRPRPTETPRP | 1.11
RRIRARPPRLPRPRPRPTFGPRP | 0.416
RRIRARPPRLPRPRPRPTFQPRP | 0.529
RRIRARPPRLPRPRPRPTFSPRP | 0.233
RRIRARPPRLPRPRPRPTFVPRP | 0.203
RRIRARPPRLPRPRPRPTGSPRP | 0.841
RRIRARPPRLPRPRPRPTHNPRP | 0.523
RRIRARPPRLPRPRPRPTINPRP | -0.00779
RRIRARPPRLPRPRPRPTKIPRP | 0.272
RRIRARPPRLPRPRPRPTNPPRP | 0.288
RRIRARPPRLPRPRPRPTPFPRP | 0.609
RRIRARPPRLPRPRPRPTQSPRP | 0.902
RRIRARPPRLPRPRPRPTQVPRP | 0.224
RRIRARPPRLPRPRPRPTRKPRP | 0.574
RRIRARPPRLPRPRPRPTRPPRP | 0.764
RRIRARPPRLPRPRPRPTSHPRP | -0.016
RRIRARPPRLPRPRPRPTSRPRP | 0.119
RRIRARPPRLPRPRPRPVCQPRP | 0.58
RRIRARPPRLPRPRPRPVDLPRP | 0.174
RRIRARPPRLPRPRPRPVEEPRP | 1.03

Sequence | shrunken log2 fold change
RRIRARPPRLPRPRPRPVEHPRP | 0.068
RRIRARPPRLPRPRPRPVEMPRP | 0.196
RRIRARPPRLPRPRPRPVEVPRP | 0.236
RRIRARPPRLPRPRPRPVFCPRP | 0.487
RRIRARPPRLPRPRPRPVHQPRP | 0.346
RRIRARPPRLPRPRPRPVIDPRP | -0.066
RRIRARPPRLPRPRPRPVILPRP | -0.0803
RRIRARPPRLPRPRPRPVIWPRP | 0.322
RRIRARPPRLPRPRPRPVKQPRP | -0.0614
RRIRARPPRLPRPRPRPVKWPRP | 3.06
RRIRARPPRLPRPRPRPVMLPRP | -0.19
RRIRARPPRLPRPRPRPVMWPRP | 0.555
RRIRARPPRLPRPRPRPVNTPRP | -0.0807
RRIRARPPRLPRPRPRPVPHPRP | 0.0133
RRIRARPPRLPRPRPRPVQCPRP | 0.22
RRIRARPPRLPRPRPRPVSCPRP | 0.473
RRIRARPPRLPRPRPRPVTIPRP | -0.207
RRIRARPPRLPRPRPRPVTPPRP | 0.479
RRIRARPPRLPRPRPRPVVDPRP | 0.399
RRIRARPPRLPRPRPRPVVVPRP | 0.652
RRIRARPPRLPRPRPRPVVYPRP | -0.285
RRIRARPPRLPRPRPRPVYGPRP | -0.235
RRIRARPPRLPRPRPRPVYSPRP | -0.312
RRIRARPPRLPRPRPRPWACPRP | 0.0376
RRIRARPPRLPRPRPRPWCLPRP | -0.214

Sequence | shrunken log2 fold change
RRIRARPPRLPRPRPRPWCSPRP | -0.155
RRIRARPPRLPRPRPRPWDVPRP | 0.246
RRIRARPPRLPRPRPRPWEQPRP | 0.248
RRIRARPPRLPRPRPRPWFCPRP | 0.0743
RRIRARPPRLPRPRPRPWGHPRP | 0.0337
RRIRARPPRLPRPRPRPWHAPRP | 0.288
RRIRARPPRLPRPRPRPWHPPRP | -0.00894
RRIRARPPRLPRPRPRPWHVPRP | -0.0219
RRIRARPPRLPRPRPRPWIRPRP | -0.132
RRIRARPPRLPRPRPRPWKEPRP | 0.00952
RRIRARPPRLPRPRPRPWKYPRP | -0.408
RRIRARPPRLPRPRPRPWMDPRP | 0.14
RRIRARPPRLPRPRPRPWMIPRP | -0.0822
RRIRARPPRLPRPRPRPWMVPRP | 0.0197
RRIRARPPRLPRPRPRPWNFPRP | -0.123
RRIRARPPRLPRPRPRPWNMPRP | -0.046
RRIRARPPRLPRPRPRPWPMPRP | 0.18
RRIRARPPRLPRPRPRPWSDPRP | 0.15
RRIRARPPRLPRPRPRPWSEPRP | 0.0573
RRIRARPPRLPRPRPRPWSHPRP | -0.186
RRIRARPPRLPRPRPRPWTKPRP | 0.167
RRIRARPPRLPRPRPRPWWVPRP | 0.066
RRIRARPPRLPRPRPRPWYSPRP | -0.43
RRIRARPPRLPRPRPRPYAMPRP | 0.0392
RRIRARPPRLPRPRPRPYAPPRP | 0.162

Sequence | shrunken log2 fold change
RRIRARPPRLPRPRPRPYCHPRP | -0.381
RRIRARPPRLPRPRPRPYCKPRP | -0.376
RRIRARPPRLPRPRPRPYCRPRP | -0.885
RRIRARPPRLPRPRPRPYCSPRP | 0.0743
RRIRARPPRLPRPRPRPYDEPRP | -0.0107
RRIRARPPRLPRPRPRPYDPPRP | -0.406
RRIRARPPRLPRPRPRPYGKPRP | -0.747
RRIRARPPRLPRPRPRPYGLPRP | 0.0316
RRIRARPPRLPRPRPRPYHLPRP | -0.0107
RRIRARPPRLPRPRPRPYIPPRP | -0.805
RRIRARPPRLPRPRPRPYKYPRP | -0.227
RRIRARPPRLPRPRPRPYMYPRP | -0.635
RRIRARPPRLPRPRPRPYNQPRP | -0.306
RRIRARPPRLPRPRPRPYQWPRP | -0.0841
RRIRARPPRLPRPRPRPYRFPRP | 0.0859
RRIRARPPRLPRPRPRPYRGPRP | -0.213
RRIRARPPRLPRPRPRPYTQPRP | -0.593
RRIRARPPRLPRPRPRPYTVPRP | -0.306
RRIRARPPRLPRPRPRPYVGPRP | 0.0297
RRIRARPPRLPRPRPRPYWFPRP | -0.775
RRIRARPPRLPRPRPRPYWNPRP | -0.566
RRIRARPPRLPRPRPRPYYRPRP | -0.183
RRIRCRPPRLPRPRPRPAALPRP | 0.219
RRIRCRPPRLPRPRPRPAAQPRP | 0.394
RRIRCRPPRLPRPRPRPAAVPRP | 0.346
